The values below are quoted from earlier work in paper PMC3721222.

Like-named read-outs stand apart in the source and are kept apart here. A value given as a limit tells only on which side of the number the result lay.

Data set [1] has as its target Trypsin (Bos taurus) (UniProt P00760).
The target of data set [2] is Chymotrypsin (Bos taurus) (UniProt P00766).
Data set [3] addresses Trypsin (Bos taurus) (UniProt P00760). The source holds these as a separate data set.
Data set [4] has the same target. The source holds these as a separate data set.
The target of data set [5] is Chymotrypsin (Bos taurus) (UniProt P00766). This is another data set of the same source.
Data set [6] addresses Plasmin (Homo sapiens) (UniProt P00747).
Data set [7] concerns the target Neutrophil elastase (Homo sapiens) (UniProt P08246).
The target in data set [8] is Chymotrypsin (Bos taurus) (UniProt P00766). This is another data set of the same source.
Data set [9] concerns the target Plasmin (Homo sapiens) (UniProt P00747). This is another data set of the same source.
The target is the same in data set [10]. This is another data set of the same source.
Data set [11] deals with Chymotrypsin (Bos taurus) (UniProt P00766). The source holds these as a separate data set.
The target in data set [12] is Trypsin (Bos taurus) (UniProt P00760). This is another data set of the same source.
The target is the same in data set [13]. The source holds these as a separate data set.
The target in data set [14] is Chymotrypsin (Bos taurus) (UniProt P00766). This is another data set of the same source.
The target is the same in data set [15]. The source holds these as a separate data set.
Data set [16] addresses Trypsin (Bos taurus) (UniProt P00760). This is another data set of the same source.
The target is the same in data set [17]. This is another data set of the same source.
The target of data set [18] is Chymotrypsin (Bos taurus) (UniProt P00766). The source holds these as a separate data set.
Data set [19] deals with Pancreatic elastase (Sus scrofa) (UniProt P00772).
Data set [20] concerns the target Leukocyte elastase (Homo sapiens) (UniProt P08246).
The target of data set [21] is Cathepsin L (UniProt P07711).
Data set [22] concerns the target Papain (Carica papaya) (UniProt P00784).
Data set [23] concerns the target Cathepsin B (UniProt P07858).
Data set [24] deals with Papain (Carica papaya) (UniProt P00784). This is another data set of the same source.
The target of data set [25] is Trypsin (Bos taurus) (UniProt P00760). This is another data set of the same source.
For data set [26] the target is unchanged. This is another data set of the same source.
The target is the same in data set [27]. The source holds these as a separate data set.
Data set [28] has the same target. This is another data set of the same source.
The target in data set [29] is Chymotrypsin (Bos taurus) (UniProt P00766). The source holds these as a separate data set.
The target in data set [30] is Trypsin (Bos taurus) (UniProt P00760). This is another data set of the same source.
Data set [31] concerns the target Chymotrypsin (Bos taurus) (UniProt P00766). The source holds these as a separate data set.
Data set [32] has as its target Metalloprotease 2 (UniProt P08253).
Data set [33] addresses Trypsin (Bos taurus) (UniProt P00760). The source holds these as a separate data set.
Data set [34] has the same target. The source holds these as a separate data set.
In data set [35] the target is Chymotrypsin (Bos taurus) (UniProt P00766). The source holds these as a separate data set.
For data set [36], the target named is Plasmin (Homo sapiens) (UniProt P00747). The source holds these as a separate data set.
Data set [37] shares this target. The source holds these as a separate data set.
For data set [38], the target named is Kv1.2 (UniProt P16389).
Data set [39] concerns the target Kv1.1 (UniProt Q09470).
Data set [40] addresses Kv1.6 (UniProt P17658).
The target of data set [41] is Trypsin (Bos taurus) (UniProt P00760). The source holds these as a separate data set.
The target is the same in data set [42]. This is another data set of the same source.
Data set [43] concerns the target Chymotrypsin (Bos taurus) (UniProt P00766). This is another data set of the same source.
For data set [44], the target named is Trypsin (Bos taurus) (UniProt P00760). This is another data set of the same source.
The target is the same in data set [45]. The source holds these as a separate data set.
The target is the same in data set [46]. The source holds these as a separate data set.
The target is the same in data set [47]. This is another data set of the same source.
The target is the same in data set [48]. This is another data set of the same source.
Data set [49] has the same target. This is another data set of the same source.

UniProt P00747, sequence (P00747 581-810): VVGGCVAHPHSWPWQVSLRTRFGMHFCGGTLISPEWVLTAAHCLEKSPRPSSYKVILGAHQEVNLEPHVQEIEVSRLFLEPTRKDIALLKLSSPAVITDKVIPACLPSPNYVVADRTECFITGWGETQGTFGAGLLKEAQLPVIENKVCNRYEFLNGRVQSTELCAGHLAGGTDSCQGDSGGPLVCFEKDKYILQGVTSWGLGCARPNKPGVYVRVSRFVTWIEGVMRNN
UniProt P00760, sequence (P00760 149-246): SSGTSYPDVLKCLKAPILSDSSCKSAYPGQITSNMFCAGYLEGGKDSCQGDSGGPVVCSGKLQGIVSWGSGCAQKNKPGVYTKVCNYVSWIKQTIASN
UniProt P00784, sequence (P00784 134-345): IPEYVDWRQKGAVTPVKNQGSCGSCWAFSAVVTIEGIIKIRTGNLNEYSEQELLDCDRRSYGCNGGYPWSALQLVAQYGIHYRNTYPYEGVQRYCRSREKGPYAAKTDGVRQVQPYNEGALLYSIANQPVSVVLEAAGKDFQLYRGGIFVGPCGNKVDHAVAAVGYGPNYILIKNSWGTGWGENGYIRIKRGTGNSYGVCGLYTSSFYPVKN
UniProt Q09470, sequence (Q09470 whole entry): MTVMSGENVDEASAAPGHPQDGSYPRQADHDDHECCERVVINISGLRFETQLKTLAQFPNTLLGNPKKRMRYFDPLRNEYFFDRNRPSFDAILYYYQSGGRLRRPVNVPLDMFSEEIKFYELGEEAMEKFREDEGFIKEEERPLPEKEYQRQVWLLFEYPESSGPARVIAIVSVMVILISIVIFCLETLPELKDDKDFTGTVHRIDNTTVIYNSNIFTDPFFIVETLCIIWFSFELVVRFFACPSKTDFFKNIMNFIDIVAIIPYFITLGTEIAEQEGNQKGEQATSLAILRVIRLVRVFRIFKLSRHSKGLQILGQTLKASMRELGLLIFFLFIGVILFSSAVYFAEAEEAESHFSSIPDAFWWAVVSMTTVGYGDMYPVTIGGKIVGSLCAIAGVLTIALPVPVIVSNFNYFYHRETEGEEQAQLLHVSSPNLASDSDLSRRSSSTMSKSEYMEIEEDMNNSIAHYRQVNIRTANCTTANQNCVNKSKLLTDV
UniProt P17658, sequence (P17658 whole entry): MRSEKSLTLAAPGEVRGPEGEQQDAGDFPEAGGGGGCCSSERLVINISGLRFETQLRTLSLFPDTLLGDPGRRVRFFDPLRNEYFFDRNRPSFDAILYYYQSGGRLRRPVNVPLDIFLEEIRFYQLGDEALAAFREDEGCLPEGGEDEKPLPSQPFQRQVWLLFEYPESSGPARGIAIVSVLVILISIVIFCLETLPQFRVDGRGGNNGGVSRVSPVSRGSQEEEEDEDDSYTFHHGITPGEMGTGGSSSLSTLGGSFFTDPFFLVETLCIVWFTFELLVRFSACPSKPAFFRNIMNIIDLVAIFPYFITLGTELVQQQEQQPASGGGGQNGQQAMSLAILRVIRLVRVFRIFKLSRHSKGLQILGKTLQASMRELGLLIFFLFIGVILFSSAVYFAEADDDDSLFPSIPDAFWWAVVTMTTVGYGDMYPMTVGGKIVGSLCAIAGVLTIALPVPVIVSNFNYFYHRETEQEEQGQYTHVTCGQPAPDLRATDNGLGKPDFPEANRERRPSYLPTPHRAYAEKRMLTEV
UniProt P07711, sequence (P07711 114-288, chain 1 of 2): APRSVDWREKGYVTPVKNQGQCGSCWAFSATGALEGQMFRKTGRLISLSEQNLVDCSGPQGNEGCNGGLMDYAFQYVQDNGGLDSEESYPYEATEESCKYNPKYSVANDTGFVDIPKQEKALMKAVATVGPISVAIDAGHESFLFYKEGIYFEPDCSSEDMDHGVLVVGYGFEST
UniProt P07711, sequence (P07711 292-333, chain 2 of 2): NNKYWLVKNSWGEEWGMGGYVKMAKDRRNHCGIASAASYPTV
UniProt P16389, sequence (P16389 whole entry): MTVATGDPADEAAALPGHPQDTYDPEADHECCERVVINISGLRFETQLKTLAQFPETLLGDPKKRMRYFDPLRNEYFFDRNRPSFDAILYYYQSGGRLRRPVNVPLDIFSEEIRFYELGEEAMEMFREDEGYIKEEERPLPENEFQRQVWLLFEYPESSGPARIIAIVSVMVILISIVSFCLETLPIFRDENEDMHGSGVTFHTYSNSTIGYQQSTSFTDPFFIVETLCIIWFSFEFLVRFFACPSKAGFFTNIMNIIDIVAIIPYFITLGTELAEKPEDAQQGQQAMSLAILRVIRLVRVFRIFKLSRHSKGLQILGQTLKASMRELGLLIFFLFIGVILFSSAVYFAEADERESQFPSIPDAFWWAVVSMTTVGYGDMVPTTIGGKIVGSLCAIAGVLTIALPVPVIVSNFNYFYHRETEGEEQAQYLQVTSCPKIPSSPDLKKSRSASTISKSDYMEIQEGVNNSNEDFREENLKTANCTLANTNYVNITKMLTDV
UniProt P00772, sequence (P00772 27-266): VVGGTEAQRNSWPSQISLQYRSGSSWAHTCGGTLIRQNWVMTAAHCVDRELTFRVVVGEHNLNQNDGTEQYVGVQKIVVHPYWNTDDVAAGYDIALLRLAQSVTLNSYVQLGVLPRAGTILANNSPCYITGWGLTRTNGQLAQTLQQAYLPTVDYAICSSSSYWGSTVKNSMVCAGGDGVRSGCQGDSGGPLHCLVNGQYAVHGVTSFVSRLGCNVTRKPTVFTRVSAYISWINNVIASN
UniProt P08253, sequence (P08253 110-660): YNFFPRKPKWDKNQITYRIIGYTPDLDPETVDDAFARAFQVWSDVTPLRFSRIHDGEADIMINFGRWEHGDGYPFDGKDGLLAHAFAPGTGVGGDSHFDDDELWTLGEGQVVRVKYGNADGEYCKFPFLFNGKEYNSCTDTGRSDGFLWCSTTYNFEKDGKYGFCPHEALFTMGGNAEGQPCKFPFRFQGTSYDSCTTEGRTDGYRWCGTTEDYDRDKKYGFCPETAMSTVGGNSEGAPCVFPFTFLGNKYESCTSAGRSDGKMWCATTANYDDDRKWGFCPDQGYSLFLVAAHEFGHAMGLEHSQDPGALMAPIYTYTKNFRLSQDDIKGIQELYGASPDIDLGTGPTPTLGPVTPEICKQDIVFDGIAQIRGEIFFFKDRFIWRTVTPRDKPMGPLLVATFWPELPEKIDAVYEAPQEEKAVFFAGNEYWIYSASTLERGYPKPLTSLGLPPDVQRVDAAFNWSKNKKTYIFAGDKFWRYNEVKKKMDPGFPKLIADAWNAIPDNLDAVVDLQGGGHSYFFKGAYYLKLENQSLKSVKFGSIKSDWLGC

A word on the Kd: it is the equilibrium constant for the complex coming apart. Turning to APHC1 (from UniProt B2G331), the dissociation constant Kd was 1000 nM in data set [1] and 5 µM in data set [2].

Consider Albumin-1 (from UniProt Q3T478), for which the Kd in data set [3] is 1.92 nM.

In general, Ki refers to a dissociation constant, usually derived from enzyme kinetics or from competition with a known ligand. As for AvKTI (from UniProt Q8T3S7), the inhibition constant Ki was 7.34 nM in data set [4], 37.8 nM in [5], 4.89 nM in data set [6] and 169 nM in data set [7].

As for BF9 (from UniProt P25660), in data set [8], the Kd was 58 nM.

For Bi-KTI (from UniProt G3LH89), the Ki in data set [9] was 3.6 nM.

Consider Bt-KTI (from UniProt D8KY58), for which, in data set [10], the Ki is 2.01 nM.

Take Bungaruskunin (from UniProt B2KTG1): the Ki in data set [11] was 6.1 µM.

As to CBPTI-1 (from UniProt A8Y7N4), the inhibitory constant (Ki) in data set [12] is 407 nM.

CBPTI-2 (from UniProt A8Y7N5): in data set [13], the inhibitory constant (Ki) is 666 nM.

On to CBPTI-3 (from UniProt A8Y7N6), for which the inhibition constant (Ki) in data set [14] is 2.55 nM.

For “Chymotrypsin inhibitor (from UniProt P00992)”, the Ki is 4.3 nM in data set [15] and 5.1 µM in data set [16].

As for Dendrotoxin E (from UniProt P00984), the results for the dissociation constant Kd in data set [17] and in [18] were 1 nM and 100 nM, respectively.

For “Elastase inhibitor (from UniProt P16895)”, the Kd in data set [19] was 1 nM.

Consider “Elastase inhibitor AEI (from UniProt P16895)”, for which the Ki in data set [20] is 1000 nM.

Equistatin (from UniProt P81439): the inhibitory constant (Ki) in [21] was 0.051 nM; in data set [22], 0.57 nM; in data set [23], 1.4 nM.

Take “Equistatin N-terminal domain (from UniProt P81439)”: the Ki in [24] was 0.6 nM.

Regarding Jn-IV (from UniProt P16344), the Kd in data set [25] is 9.6 nM.

For the substance “Kalicludin-1 (AsKC1) (from UniProt Q9TWG0)”, in data set [26], the dissociation constant (Kd) is under 30 nM.

As to “Kalicludin-2 (AsKC2) (from UniProt Q9TWF9)”, the dissociation constant (Kd) in data set [27] is under 30 nM.

Regarding “Kalicludin-3 (AsKC3) (from UniProt Q9TWF8)”, in [28], the Kd is under 30 nM.

For the substance NACI (from UniProt Q5ZPJ7), in data set [29], the Ki is 25 nM.

As to OH-TCI (native) (from UniProt B6RLX2), the inhibition constant (Ki) in [30] and in data set [31] was 170 nM in each case.

Consider Pr-mulgin 1 (from UniProt E7FL11), for which the inhibition constant (Ki) in data set [32] was 60 nM.

With SA5 II (from UniProt P10280), the Kd in [33] is 0.3 nM.

For the substance ShPI-1 (from UniProt P31713), the Kd in [34] was 0.11 nM; in [35], 2.3 nM; in data set [36], 2.7 nM.

With Textilinin-2 (from UniProt Q90WA0), the Ki in data set [37] was 2.2 nM.

Toxin I (from UniProt P00979): the Kd in data set [38], in data set [39] and in [40] was under 20 nM each time.

In the case of Trypsin inhibitor (from UniProt P20229), the inhibition constant Ki in data set [41] is 3.5 pM.

Take “Trypsin inhibitor I (from UniProt P00991)”: the figures for the inhibition constant (Ki) in [42] and in data set [43] were 0.34 nM and 270 nM, respectively.

Take rBmKTT-1 (from UniProt P0DJ49): the Kd in [44] was 136 nM.

As for rBmKTT-2 (from UniProt P0DJ50), in data set [45], the Kd was 420 nM.

With rHg1 (from UniProt P0C8W3), the Kd in [46] is 107 nM.

For the substance rLmKTT-1a (from UniProt P0DJ46), the equilibrium dissociation constant (Kd) in [47] was 140 nM.

For the substance rLmKTT-1b (SdPI) (from UniProt P0DJ45), the dissociation constant Kd in data set [48] was 160 nM.

Consider rLmKTT-1c (from UniProt P0DJ48), for which the Kd in [49] was 124 nM.
